US9322000B2, “Methanol dehydrogenase enzymes from Bacillus” (Sinvent AS, priority 2012, dated 2016)
Entries after “also recorded” stand apart in the source; their conditions may differ.

Columns and labels:
[1] = Methanol dehydrogenase assay of purified recombinant MDH proteins (NADH production at 340 nm); assay type: biochemical
Experimental: (§1) Alcohol dehydrogenase activities were measured spectrophotometrically essentially as described previously (Hektor, Kloosterman et al. (2002) Chem 277(49): 46966-46973) and the reaction mixture contained: 100 mM Glycine-KOH pH 9.5 (unless otherwise stated), 5 mM MgSO4, 0.5 mM NAD^+ and 500 mM alcohol (methanol, ethanol, propanol, 1,3-propanediol, or butanol). NAD^+ was substituted with equal concentrations of NADP^+, FMN^+, and FAD^+, when indicated. The reaction mixture for measurements of formaldehyde reductase activity contained: 50 mM Potassium-phosphate buffer pH=6.7, 0.15 mM NADH, 1 mM DTT and 11.6 mM (0.1-116 mM) formaldehyde. The assay components were mixed in the cuvette and pre-warmed to 45° C., unless otherwise stated. The reactions were started by addition of 5-40 μg of the purified MDH proteins, and the production of NADH was monitored at 340 nm for 4 minutes. One unit of MDH activity was defined as the amount of enzyme needed to produce 1 μmol NADH per minute under the conditions described above. Purified Act (0.1-40 μg) or NudF (20 μg) proteins were added to the reaction mixtures as indicated in the text.
(§2) The purified MDH and Act proteins (20 μg) were used in the kinetic experiments performing the methanol dehydrogenase and the formaldehyde dehydrogenase assays essentially as described above. […] For determination of the Km for NAD^+ (Km,NAD+) and Vmax, the methanol concentration was kept constant at a saturating level (500 mM), while the concentration of NAD^+ was varied (5-1000 μM). […] Act (20 μg) was added to the reaction mixtures for determination of Kμ,MεOH and Vmax values in the presence of this activator, as indicated in the text. In general, the slopes of activity versus time were linear in the measured period (data not shown). Km and Vmax values were calculated by using nonlinear regression with the Microsoft Excel solver-tool to fit the measured data to the Michaelis-Menten equation, as described previously (Jakobsen et al., (2009) Appl Environ Microbiol 75(3): 652-661). The values obtained from the regression were then compared to the values obtained from Lineweaver-Burk and Hanes-Woolf plots to ensure that the global minimum, not a local minimum, had been found.

[2] = In vitro Mdh activity in crude cell extracts of recombinant E. coli; assay type: biochemical; conditions: −Act, expressed in E. coli, crude cell extract
Excerpt: (§3) The genes coding for Mdh and the Mdh activator protein Act were amplified from pET21a-plasmids harboring genes from B. methanolicus strains MGA3 (mdh-MGA3, mdh2-MGA3, mdh3-MGA3 and act-MGA3) and PB1 (mdh-PB1, mdh1-PB1 and mdh2-PB1). The genes were then cloned either into the pSEVA424 plasmid (mdh genes) or in the pSEVA131 plasmid (act gene). For cloning of mdh-MGA3, mdh-PB1, mdh1-PB1 and act-MGA3, EcoRI and HindIII restrictions sites were used, while mdh2-MGA3, mdh2-PB1 and mdh3-MGA3 were cloned by using EcoRI and PstI restriction sites. The resulting expression vectors were transformed into electrocompetent wt E. coli K-12 (BW25113) and into E. coli K-12 (BW25113) with a deleted frmA gene.
(§4) Expression Experiments For expression experiments, the cells were cultivated in either Luria-Bertani (LB) medium for in vitro assays or in M9 medium for in vivo assays both containing 20 μg/ml streptomycin for pSEVA424. When Act was co-expressed the medium was supplemented with 100 μg/ml ampicillin. Expression was induced when cells reached OD 0.5 (for in vitro tests) or OD 1 (for in vivo tests) by adding 0.1 mM IPTG (final concentration) for 6 hours. Cells were then harvested by centrifugation. For in vitro assays, crude cell extract was prepared by lysing the cells in a French press following ultracentrifugation. Alternatively, cells were resuspended in M9-medium without glucose for in vivo activity measurements. Enzyme Assays
In vitro measurements of Mdh activity: For determination of Mdh activity in crude cell extracts, the Mdh dependent formation of NADH was monitored at 340 nm. The assays were performed either at 37° C. or 45° C. in prewarmed buffer solutions. The Mdh assay contained 10-20 μg enzyme, 50 mM K2HPO4-buffer, pH7.4, 2.5 mM MgCl and 0.5 mM of NAD^+ (final concentrations). After 5 min of preincubation, the reaction was started with 1 M of methanol (final concentration).

[3] = Heat stability: pre-incubation of purified MDHs at 45° C. or 60° C. prior to the enzyme assay; assay type: biochemical; conditions: preincubation at 60° C.; compared to the remaining MDHs
Experimental: FIG. 5. (A) Temperature stability of MGA3 Mdh, Mdh2 and Mdh3 was tested in vitro. Enzymes were incubated at 45° C. or at 60° C. prior to the enzyme assay. (B) Temperature stability of PB1 Mdh, Mdh1 and Mdh2 was tested in vitro. Enzymes were incubated at 45° C. or at 60° C. prior to the enzyme assay.
The heat stability of the six MDHs was tested by pre-incubation of the proteins at 45° C. and 60° C. and samples were taken at different time points for enzyme assays. As expected, all enzymes retained essentially all catalytic activity upon preincubations at 45° C. (FIG. 5). […] A selection of the experiments was repeated in the presence of equal amounts of purified Act, and this had no effect on temperature stability for any of the MDHs (data not shown).

[4] = Formaldehyde reductase assay of purified MDH proteins; assay type: biochemical; conditions: 45° C., formaldehyde reductase activity
Experimental: as §1, §2

[5] = Substrate specificity of purified MDH proteins on alternative alcohols; assay type: biochemical; conditions: all alternative alcohol substrates
Experimental: FIG. 3. Catalytic activities of purified Mdh (black), Mdh2 (dark grey) and Mdh3 (light grey) on various alcohols (200 mM) tested in vitro. (A) Substrate specificity was analysed for MDHs from B. methanolicus MGA3 in vitro. Alcohol substrates were used at concentrations of 500 mM except for pentanol (300 mM) and hexanol (50 mM). The data were calculated from the mean value from two experiments which were done in triplicate. (B) Substrate specificity for MDHs from B. methanolicus PB1 was analysed in vitro. Alcohol substrates were used at concentrations of 500 mM except for pentanol (300 mM) and hexanol (50 mM). The data were calculated from the mean value from two experiments which were done in triplicate.
Alcohol dehydrogenase activities were measured spectrophotometrically essentially as described previously (Hektor, Kloosterman et al. (2002) Chem 277(49): 46966-46973) and the reaction mixture contained: 100 mM Glycine-KOH pH 9.5 (unless otherwise stated), 5 mM MgSO4, 0.5 mM NAD^+ and 500 mM alcohol (methanol, ethanol, propanol, 1,3-propanediol, or butanol). NAD^+ was substituted with equal concentrations of NADP^+, FMN^+, and FAD^+, when indicated. […] The reactions were started by addition of 5-40 μg of the purified MDH proteins, and the production of NADH was monitored at 340 nm for 4 minutes. […]

[6] = In vivo Mdh activity in cell suspensions of recombinant E. coli (formaldehyde accumulating in supernatant); assay type: cell-based; conditions: 37° C., −Act; E. coli cell suspension
Excerpt: as §3, §4
In vivo measurements of Mdh activity: For determination of Mdh activity in cell suspensions, cells were harvested after IPTG induction, washed and resuspended in M9-medium without glucose and IPTG. OD600 was set to 1 for normalization. […] The assay was started by addition of 1 M methanol and subsequent measurement of accumulating formaldehyde in the supernatant resulting from the methanol dehydrogenase catalyzed oxidation of methanol. The calculated activities were based on the assumption that 1 l of an OD1 culture contains 0.3 g biomass of which 50% is protein.

B1: Mdh2-PB1: NAD-dependent methanol dehydrogenase encoded by chromosomal gene mdh2-PB1 of B. methanolicus PB1, SEQ ID NO. 6 (protein)
chain: MTNTQSIFYIPSVNLFGPGSVNEVGTRLAGLGVKKALLVTDAGLHGLGLSEKIASIIREAGVEVLIFPKAEPNPTDKNVAEGLEVYNAENCDSIVTLGGGSSHDAGKGIALVAANGGTIYDYEGVDKSKKPMVPLIAINTTAGTGSELTRFTIITDTERKVKMAIVDKHVTPTLSINDPELMVGMPPSLTAATGLDALTHAIEAYVSTAATPITDALAIQAIKIISKYLPRAFANGKDMEAREQMAFAQSLAGMAFNNASLGYVHAIAHQFGGFYNFPHGVCNAILLPHVCRFNLISKVERFAEIAALLGENVAGLSTREAAEKGIKAIERMAKDLNIPRGFKELGAKEEDIVTLAENAMKDATALTNPRKPKLEEVIQIIKNAM
modifications: Bacillus methanolicus PB1
- Vmax, variable substrate Methanol + Act ([1]; 45° C., pH 9.5, 20 μg MDH + 20 μg Act): 0.24 U/mg
- Km ([1]; 45° C., pH 9.5, 20 μg MDH + 20 μg Act, read-out: Km, variable substrate Methanol + Act): 36 mM
- Vmax, variable substrate Methanol ([1]; 45° C., pH 9.5, absence of Act): 0.065 U/mg
- reduction of Km,MeOH in the presence of Act ([1]; Act added vs. no Act): 4 fold
- In vitro activity ([2]; 37° C.): 33 mU/mg
- In vitro activity ([2]; 45° C.): 103 mU/mg
- temperature stability in vitro (in words) [3]: Higher Temperature Stabilities; also recorded: only moderate negative effects; also recorded: improved thermostability
- Vmax, variable substrate Formaldehyde [4]: 1.12 U/mg
- Km ([4]; read-out: Km, variable substrate Formaldehyde): 1.3 mM
- catalytic activity on alternative alcohols compared with the remaining MDHs [5]: significantly higher catalytic activity than the remaining enzymes
- In vivo activity [6]: 3 mU/mg
